# Measurements as given in the supplement of paper PMC9170038.
# Test system: MS2 coat protein
# Assay: apparent KD of MS2 coat protein; designed switch direction (-1 OFF switch, 1 ON switch): 1; higher = weaker reporter binding
# Procedure, shortened: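 On Illumina chips, designed RNA switches with common flanks were made by stalled E. coli RNA polymerase. Titrations with SNAP-549-labelled MS2 coat protein, doubling from 0.7 or 1.5 nM to 3 µM, were done with no input, with 200 uM small-molecule ligand, or with an oligonucleotide input. Apparent KD is the median per design over clusters, from curve fits of normalised cluster fluorescence.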
# [1] = Eterna round: R95, input ligand: FMN 200 uM
# [2] = Eterna round: R95, input ligand: microRNA oligo, concentration not stated
# [3] = Eterna round: R95, input ligand: none
# [4] = input ligand: microRNA oligo, concentration not stated
sequence,measurement,setting,value
AACAAUCUAUCUGAGGAUAUCAUGAAAUAAACAUGAGGAUCACCCAUGUGCAGGAAAACUGCAUAUGAGAAGGCAGAUAGAUUGA [salish99_ss2_r3_x] (puzzle: Same State 2),apparent KD of MS2 coat protein,[1],49.5 nM
same,apparent KD of MS2 coat protein,[2],605 nM
same,apparent KD of MS2 coat protein,[3],1060 nM
AACAAUCUAUCUGAGGAUAUCAUGAAAUAUACAUGAGGAUCACCCAUGUGCAGGAAAACUGCAUAUGAGAAGGCAGAUAGAUUGA [salish99_ss2_r3_034] (puzzle: Same State 2),apparent KD of MS2 coat protein,[1],59 nM
same,apparent KD of MS2 coat protein,[2],612 nM
same,apparent KD of MS2 coat protein,[3],3190 nM
AACAAUUUAUCUGAGGAUAUCAUGAAAUAAACAUGAGGAUCACCCAUGUGCAGGAAAACUGCAUAUGAGAAGGCAGAUAGAUUGA [salish99_ss2_r3_023] (puzzle: Same State 2),apparent KD of MS2 coat protein,[1],53.5 nM
same,apparent KD of MS2 coat protein,[2],821 nM
same,apparent KD of MS2 coat protein,[3],1890 nM
"AACAGUCGGCGAGGAUAUGGACGUACAGGUUUGCCUGUGCGGCUCACAUGAGGAUCACCCAUGUUCUAGAAGGCGCCACUGAGA [Lausrein] (Eterna round: R96, puzzle: Same State NG 2)",apparent KD of MS2 coat protein,input ligand: FMN 200 uM,19.9 nM
same,apparent KD of MS2 coat protein,[4],48.8 nM
same,apparent KD of MS2 coat protein,input ligand: none,81.2 nM
"AACAUGAGGACAUGAACAUGAGGAUCACCCAUGUAUGUUUAUAAGGAUAUAUGAGGAGGAGGAGAAUAGAAGGUAUAGGGAGGG [This also seems to work] (Eterna round: R96, puzzle: Same State NG 3)",apparent KD of MS2 coat protein,input ligand: FMN 200 uM,45 nM
same,apparent KD of MS2 coat protein,[4],35.5 nM
same,apparent KD of MS2 coat protein,input ligand: none,43.2 nM
"AACCCAAUGGAAGGAUAUGGCACCUUAUUGGUGCCAGAAGGUCCUAACAUGAGGAUCACCCAUGUGGGCCGGUCGAAAGACCGG [Fiskers NG1ss - 6] (Eterna round: R96, puzzle: Same State NG 1)",apparent KD of MS2 coat protein,input ligand: FMN 200 uM,106 nM
same,apparent KD of MS2 coat protein,[4],306 nM
same,apparent KD of MS2 coat protein,input ligand: none,656 nM
"AACCGCGCAGAUGCGCGACAUGAGGAUCACCCAUGUGGCACACAGGAUAUCCUGAACAGCUAUUAGGAGAAGGGUGAAGGCCUC [Oredceti] (Eterna round: R96, puzzle: Same State NG 3)",apparent KD of MS2 coat protein,input ligand: FMN 200 uM,339 nM
same,apparent KD of MS2 coat protein,[4],45.1 nM
same,apparent KD of MS2 coat protein,input ligand: none,127 nM
AAGAAAGUUUACGAGGAUAUGUUCCGCAUAACAUGAGGAUCACCCAUGUGAACAAGAAAGGCGACGCAGAAGGCGUGAGCAAAAG [Mat - Same State 2 - Mod of UCT - D97] (puzzle: Same State 2),apparent KD of MS2 coat protein,[1],105 nM
same,apparent KD of MS2 coat protein,[2],199 nM
same,apparent KD of MS2 coat protein,[3],412 nM
AAGAACAAGCGAAAGGCCCGUCUUAUAUAACAUGAGGAUCACCCAUGUAAGGUGAAAGUUAGAGAGUGGAGGUUGAA [JR_SHM208A_Sub047] (puzzle: Sensor for hsa-mir-208a),apparent KD of MS2 coat protein,[1],284 nM
same,apparent KD of MS2 coat protein,[2],282 nM
same,apparent KD of MS2 coat protein,[3],340 nM
"AAGAUGCUCGUAGGAUAUUGGAAAGGAAGUGUACAAGAAGGACGGUGUCACAUGAGGAUCACCCAUGUUACAGUCUAAUGACUG [PowerStrip SSNG 1.1] (Eterna round: R96, puzzle: Same State NG 1)",apparent KD of MS2 coat protein,input ligand: FMN 200 uM,18.7 nM
same,apparent KD of MS2 coat protein,[4],53.5 nM
same,apparent KD of MS2 coat protein,input ligand: none,61.4 nM
"AAGCAUGAAAACAUGCAUAAAAAGUUUGUACAUGAGGAUCACCCAUGUAUGUGCAAGCUUUUUGCUCGUCUUGAAAA [JL SD Zipper 5] (Eterna round: R96, puzzle: Sensor for hsa-mir-208a)",apparent KD of MS2 coat protein,input ligand: FMN 200 uM,171 nM
same,apparent KD of MS2 coat protein,[4],17.4 nM
same,apparent KD of MS2 coat protein,input ligand: none,171 nM
AAGCCUGUAGCACAGGAUAUCCGAGGCAAAACAUGAGGAUCACCCAUGUCAAACGAAAAUCCGAAGGAGAAGGGUGAACAGGCUC [Laarededqu] (puzzle: Same State 2),apparent KD of MS2 coat protein,[1],10.9 nM
same,apparent KD of MS2 coat protein,[2],7.83 nM
same,apparent KD of MS2 coat protein,[3],8.24 nM
AAUAGUUGCGGGCAGGAUAUGUAUUAAAAUACAUGAGGAUCACCCAUGUGCGGGUAUAACACCCGACAGAAGGGCCAAUCGCGAC [Mat - Same State 2 - Mod of UCT - D94] (puzzle: Same State 2),apparent KD of MS2 coat protein,[1],25.7 nM
same,apparent KD of MS2 coat protein,[2],216 nM
same,apparent KD of MS2 coat protein,[3],233 nM
"AAUAUAUUAAGUGAGGAUAUCAUAGAAAAAACAUGAGGAUCACCCAUGUGGGAAACCUGGUCGGGUGAGAAGGCACUUAAUAUAU [Samwise Clockwise 29 - Jieux - Same State 2] (Eterna round: R96, puzzle: Same State 2)",apparent KD of MS2 coat protein,input ligand: FMN 200 uM,85.2 nM
same,apparent KD of MS2 coat protein,[4],823 nM
same,apparent KD of MS2 coat protein,input ligand: none,1280 nM
"AAUAUUAAGGCGGACGUUAACCGCAACCGACAUGAGGAUCACCCAUGUGCUUCAAGCUCAGACAUCUCUUAUCGUCA [Arrizareat] (Eterna round: R96, puzzle: Sensor for hsa-mir-208a)",apparent KD of MS2 coat protein,input ligand: FMN 200 uM,84.3 nM
same,apparent KD of MS2 coat protein,[4],59.4 nM
same,apparent KD of MS2 coat protein,input ligand: none,79 nM
"AAUUAAUUAAUUAAGUACAUGAGGAUCACCCAUGUAAGUGAUCAGGAUAUCAGCUCGUUUAGAGCUGAGAAGGGAUCCAUGUAC [SSNG3/15-A3] (Eterna round: R96, puzzle: Same State NG 3)",apparent KD of MS2 coat protein,input ligand: FMN 200 uM,360 nM
same,apparent KD of MS2 coat protein,[4],297 nM
same,apparent KD of MS2 coat protein,input ligand: none,404 nM
"AAUUCAAACAGAGGAUAUUGUUUAUCUCUAUUGCAAGAAGGCUGAUCUUACUACCCACUUAUGAAACAUGAGGAUCACCCAUGU [JR_SSNG1_Sub018] (Eterna round: R96, puzzle: Same State NG 1)",apparent KD of MS2 coat protein,[4],30.1 nM
ACAAGCUUUUUGCUCAUCUUAUGUCCGAAACAUGAGGAUCACCCAUGUAUAGAUUAUGUGUUGUUGUAGAUACAAGA [JR_SHM208A_Sub063] (puzzle: Sensor for hsa-mir-208a),apparent KD of MS2 coat protein,[1],22.7 nM
same,apparent KD of MS2 coat protein,[2],19.6 nM
same,apparent KD of MS2 coat protein,[3],28.3 nM
ACACUUGCACAUGAGGAUCACCCAUGUUGACAAGCUUUUUGCUCGUCUUAUAGAACAAAGAAGAAGAACAACAGAAA [Victory 2] (puzzle: Sensor for hsa-mir-208a version 2),apparent KD of MS2 coat protein,[1],20.7 nM
same,apparent KD of MS2 coat protein,[2],17.9 nM
same,apparent KD of MS2 coat protein,[3],21.9 nM
"ACAUGAAAUAGAGGAUAUUUUGUACCUACAUGUGACAUGAGGAUCACCCAUGUGGUAAGUAUGAGAAAGAAGGCUAAGAUAUGU [Equivalence 12 - Jieux - Same State NG 2] (Eterna round: R96, puzzle: Same State NG 2)",apparent KD of MS2 coat protein,input ligand: FMN 200 uM,18.6 nM
same,apparent KD of MS2 coat protein,[4],30.3 nM
same,apparent KD of MS2 coat protein,input ligand: none,48.6 nM
"ACAUGAGACCAAGGAUAUUUUGUACCUACAUGUGACAUGAGGAUCACCCAUGUGGUAAGUAUGAGGGAGAAGGUGGAGAUAUGU [Equivalence 24 - Jieux - Same State NG 2] (Eterna round: R96, puzzle: Same State NG 2)",apparent KD of MS2 coat protein,input ligand: FMN 200 uM,54.3 nM
same,apparent KD of MS2 coat protein,[4],48.7 nM
same,apparent KD of MS2 coat protein,input ligand: none,73.7 nM
"ACAUGAGACGUAGGAUAUAUUGUACCUACAUGUGACAUGAGGAUCACCCAUGUGGUAAGUAUGACAUAGAAGGACGAGAUAUGU [Equivalance 94 - Jieux - Same State NG 2] (Eterna round: R96, puzzle: Same State NG 2)",apparent KD of MS2 coat protein,input ligand: FMN 200 uM,48.6 nM
same,apparent KD of MS2 coat protein,[4],49.7 nM
same,apparent KD of MS2 coat protein,input ligand: none,64.3 nM
"ACAUGAGACUUAGGAUAUGUUGUACCUACAUGUGACAUGAGGAUCACCCAUGUGGUAAGUAUGAUACAGAAGGAAGAGAUAUGU [Equivalance 66 - Jieux - Same State NG 2] (Eterna round: R96, puzzle: Same State NG 2)",apparent KD of MS2 coat protein,input ligand: FMN 200 uM,17.2 nM
same,apparent KD of MS2 coat protein,[4],27.5 nM
same,apparent KD of MS2 coat protein,input ligand: none,42.9 nM
"ACAUGAGAGAUAGGAUAUCGUGUACCUACAUGUGACAUGAGGAUCACCCAUGUGGUAAGUAUGAGCGAGAAGGAUCAGAUAUGU [Equivalence 50 - Jieux - Same State NG 2] (Eterna round: R96, puzzle: Same State NG 2)",apparent KD of MS2 coat protein,input ligand: FMN 200 uM,24.6 nM
same,apparent KD of MS2 coat protein,[4],43.1 nM
same,apparent KD of MS2 coat protein,input ligand: none,78.4 nM
"ACAUGAGAUAGAGGAUAUAUUGUACCUACAUGUGACAUGAGGAUCACCCAUGUGGUAAGUAUGACAUAGAAGGCUGAGAUAUGU [Equivalance 83 - Jieux - Same State NG 2] (Eterna round: R96, puzzle: Same State NG 2)",apparent KD of MS2 coat protein,input ligand: FMN 200 uM,69.8 nM
same,apparent KD of MS2 coat protein,[4],67.5 nM
same,apparent KD of MS2 coat protein,input ligand: none,77 nM
"ACAUGAGAUGGAGGAUAUUUUGUACCUACAUGUGACAUGAGGAUCACCCAUGUGGUAAGUAUGAGAAAGAAGGCCAAGAUAUGU [Equivalence 17 - Jieux - Same State NG 2] (Eterna round: R96, puzzle: Same State NG 2)",apparent KD of MS2 coat protein,input ligand: FMN 200 uM,17.6 nM
same,apparent KD of MS2 coat protein,[4],18.4 nM
same,apparent KD of MS2 coat protein,input ligand: none,28.5 nM
"ACAUGAGGAUCACCCAUGUAUAGAAUUGAAUGUUAAGAUACGUAGGAUAUCGAGAUUAGUAUGAUCGAGAAGGACGAUUAGAUA [JR_SSNG3_Sub064] (Eterna round: R96, puzzle: Same State NG 3)",apparent KD of MS2 coat protein,input ligand: FMN 200 uM,12.6 nM
same,apparent KD of MS2 coat protein,[4],16.6 nM
same,apparent KD of MS2 coat protein,input ligand: none,20.3 nM
"ACAUGAGGAUCACCCAUGUAUGCUCAGGAAACUGUGCAGCAUUAGGAUAUGGAUCCUAAUUGGAUCCAGAAGGAGUGAAUUAUU [Fiskers NG3ss - 26] (Eterna round: R96, puzzle: Same State NG 3)",apparent KD of MS2 coat protein,input ligand: FMN 200 uM,82.2 nM
same,apparent KD of MS2 coat protein,[4],117 nM
same,apparent KD of MS2 coat protein,input ligand: none,126 nM
ACCCGAAGUAUAUGGGAACAAGCUUUUUAACAUGAGGAUCACCCAUGUACUCGUCUUAUAAGCAGUCGAAAGACUGC [Sensor 100 - 5] (puzzle: Sensor for hsa-mir-208a),apparent KD of MS2 coat protein,[1],21.7 nM
same,apparent KD of MS2 coat protein,[2],17.3 nM
same,apparent KD of MS2 coat protein,[3],44.5 nM
ACGCAGCUGGGUAAGGAUAUCGGUGGUAAAACAUGAGGAUCACCCAUGUCCGAAGCUCGGACUUCCGAGAAGGUGCCCGGCUGCG [Soinraesar Omei Mod 6] (puzzle: Same State 2),apparent KD of MS2 coat protein,[1],23.8 nM
same,apparent KD of MS2 coat protein,[2],222 nM
same,apparent KD of MS2 coat protein,[3],218 nM
